According to US20250276077A1, “EPHA2 ANTIBODIES” (Immunome, Inc., priority 2022, published 2025):

What was measured:
[1] = molecular target: Human EphA2 (ephrin receptor A2), native, in human tumor tissue (human) (UniProt P29317); assay: tissue staining of human cancer samples, 3 ug/ml
[2] = molecular target: Human EphA2 (ephrin receptor A2), native, in human tumor tissue (human) (UniProt P29317); assay: tissue staining of human cancer samples, 30 ug/ml (the box on the sheet prints AB-010017 twice)
[3] = molecular target: Human EphA2 (ephrin receptor A2), native, in human tumor tissue (human) (UniProt P29317); assay: tissue staining of human cancer samples, 30 ug/ml
[4] = molecular target: Human EphA2 (human) (UniProt P29317); assay: IHC/IF on frozen human tumor tissue: ANC
[5] = molecular target: Human EphA2 (human) (UniProt P29317); assay: IHC/IF on frozen human tumor tissue: CRC
[6] = molecular target: Human EphA2 (human) (UniProt P29317); assay: IHC/IF on frozen human tumor tissue: ESO
[7] = molecular target: Human EphA2 (human) (UniProt P29317); assay: IHC/IF on frozen human tumor tissue: GAC
[8] = molecular target: Human EphA2 (human) (UniProt P29317); assay: IHC/IF on frozen human tumor tissue: HNC
[9] = molecular target: Human EphA2 (human) (UniProt P29317); assay: IHC/IF on frozen human tumor tissue: OVA
[10] = molecular target: Human EphA2 (human) (UniProt P29317); assay: IHC/IF on frozen human tumor tissue: STS
[11] = molecular target: Human EphA2 (human) (UniProt P29317); assay: IHC/IF on frozen human tumor tissue: URO
[12] = molecular target: Human EphA2 (human) (UniProt P29317); assay: IHC/IF on frozen human tumor tissue: MELA
[13] = molecular target: Human EphA2 (human) (UniProt P29317); assay: IHC/IF on frozen human tumor tissue: PANC
[14] = molecular target: Human EphA2 (human) (UniProt P29317); assay: IHC/IF on frozen human tumor tissue: PROC
[15] = molecular target: Human EphA2 (human) (UniProt P29317); assay: IHC/IF on frozen human tumor tissue: TNBC
[16] = molecular target: Human EphA2 (human) (UniProt P29317); assay: IHC/IF on frozen human tumor tissue: ER+ BRC
[17] = molecular target: Human EphA2 (human) (UniProt P29317); assay: IHC/IF on frozen human tumor tissue: NSCLC-SQ
[18] = molecular target: Human EphA2 (human) (UniProt P29317); assay: IHC/IF on frozen human tumor tissue: Her2+ BRC
[19] = molecular target: Human EphA2 (human) (UniProt P29317); assay: IHC/IF on frozen human tumor tissue: NSCLC-Adeno
[20] = molecular target: Human EphA2 (human) (UniProt P29317); assay: IHC/IF on frozen human tumor tissue: RCC-papillary
[21] = molecular target: Human EphA2 (human) (UniProt P29317); assay: IHC/IF on frozen human tumor tissue: RCC-clear cell
[22] = molecular target: Human EphA2 (human) (UniProt P29317); assay: IHC/IF on frozen human tumor tissue: UCEC-papillary
[23] = molecular target: Human EphA2 (human) (UniProt P29317); assay: IHC/IF on frozen human tumor tissue: UCEC-clear cell
[24] = molecular target: Human EphA2 (human) (UniProt P29317); assay: IHC/IF on frozen human tumor tissue: UCEC-endometrioid

AB-010016 (based on Medi-547; mouse IgG2a format) (antibody)
Reactive (% of samples), Bladder Urothelial Carcinoma [1]: 33%
Reactive (% of samples), Breast Cancer [1]: 0%
Reactive (% of samples), Cervical Squamous Cell Carcinoma [1]: 0%
Reactive (% of samples), Colorectal Adenocarcinoma [1]: 10%
Reactive (% of samples), Head & Neck Squamous Cell Carcinoma [1]: 0%
Reactive (% of samples), Liver Hepatocellular Cell Carcinoma [1]: 7%
Reactive (% of samples), Melanoma [1]: 0%
Reactive (% of samples), Non-Small Cell Lung Cancer [1]: 5%
Reactive (% of samples), Ovarian Cancer [1]: 0%
Reactive (% of samples), Renal Cancer [1]: 0%
Reactive (% of samples), Soft Tissue Sarcoma [1]: 0%
Reactive (% of samples), Stomach Adenocarcinoma [1]: 0%
Reactive (% of samples), Testicular Cancer [1]: 0%
Reactive (% of samples), Thyroid Cancer [1]: 0%
Reactive (% of samples), Uterine Cancer [1]: 0%
Reactive (% of samples), Bladder Cancer (Urothelial) [2]: 50%
Reactive (% of samples), Breast Cancer [2]: 47%
Reactive (% of samples), Cervical Cancer (Squamous) [2]: 40%
Reactive (% of samples), Colorectal Cancer (Adenocarcinoma) [2]: 40%
Reactive (% of samples), Esophageal Cancer (Squamous) [2]: 27%
Reactive (% of samples), Liver Cancer (HCC) [2]: 80%
Reactive (% of samples), Melanoma [2]: 29%
Reactive (% of samples), Non-Small Cell Lung Cancer [2]: 26%
Reactive (% of samples), Ovarian Cancer [2]: 53%
Reactive (% of samples), Renal Cancer [2]: 0%
Reactive (% of samples), Soft Tissue Sarcoma [2]: 9%
Reactive (% of samples), Stomach Cancer (Adenocarcinoma) [2]: 50%
Reactive (% of samples), Testicular Cancer [2]: 28%
Reactive (% of samples), Thyroid Cancer [2]: 44%
Reactive (% of samples), Uterine Cancer [2]: 21%

AB-010017 (based on MM-310; mouse IgG2a format) (antibody)
Reactive (% of samples), Bladder Urothelial Carcinoma [1]: 50%
Reactive (% of samples), Breast Cancer [1]: 0%
Reactive (% of samples), Cervical Squamous Cell Carcinoma [1]: 27%
Reactive (% of samples), Head & Neck Squamous Cell Carcinoma [1]: 38%
Reactive (% of samples), Liver Hepatocellular Cell Carcinoma [1]: 0%
Reactive (% of samples), Non-Small Cell Lung Cancer [1]: 11%
Reactive (% of samples), Ovarian Cancer [1]: 6%
Reactive (% of samples), Renal Cancer [1]: 0%
Reactive (% of samples), Soft Tissue Sarcoma [1]: 3%
Reactive (% of samples), Stomach Adenocarcinoma [1]: 25%
Reactive (% of samples), Testicular Cancer [1]: 0%
Reactive (% of samples), Thyroid Cancer [1]: 8%
Reactive (% of samples), Bladder Cancer (Urothelial) [3]: 38%
Reactive (% of samples), Breast Cancer [3]: 8%
Reactive (% of samples), Cervical Cancer (Squamous) [3]: 36%
Reactive (% of samples), Colorectal Cancer (Adenocarcinoma) [3]: 10%
Reactive (% of samples), Esophageal Cancer (Squamous) [3]: 13%
Reactive (% of samples), Liver Cancer (HCC) [3]: 43%
Reactive (% of samples), Melanoma [3]: 7%
Reactive (% of samples), Non-Small Cell Lung Cancer [3]: 5%
Reactive (% of samples), Ovarian Cancer [3]: 47%
Reactive (% of samples), Renal Cancer [3]: 12%
Reactive (% of samples), Soft Tissue Sarcoma [3]: 3%
Reactive (% of samples), Stomach Cancer (Adenocarcinoma) [3]: 25%
Reactive (% of samples), Testicular Cancer [3]: 0%
Reactive (% of samples), Thyroid Cancer [3]: 0%
Reactive (% of samples), Uterine Cancer [3]: 7%

Ab73254 (extracellular) (antibody)
IHC score [4]: 1
IHC score [5]: 1
IHC score [6]: 1
IHC score [7]: 1
IHC score [8]: 1
IHC score [9]: 1
IHC score [10]: 1
IHC score [11]: 1
IHC score [12]: 2
IHC score [13]: 1
IHC score [14]: 1
IHC score [15]: 1
IHC score [16]: 1
IHC score [17]: 2
IHC score [18]: 1
IHC score [19]: 2
IHC score [20]: 1
IHC score [21]: 1
IHC score [22]: 1
IHC score [23]: 2
IHC score [24]: 1

6997S (around Arg907) (antibody)
IHC score [4]: 2
IHC score [5]: 1
IHC score [6]: 2
IHC score [7]: 1
IHC score [8]: 1
IHC score [9]: 1
IHC score [10]: 1
IHC score [11]: 1
IHC score [12]: 2
IHC score [13]: 1
IHC score [14]: 1
IHC score [15]: 1
IHC score [16]: 1
IHC score [17]: 1
IHC score [18]: 1
IHC score [19]: 1
IHC score [20]: 1
IHC score [21]: 1
IHC score [22]: 2
IHC score [23]: 2
IHC score [24]: 1

LS-B1794-50 (AA 450-500) (antibody)
IHC score [4]: 1
IHC score [5]: 1
IHC score [6]: 1
IHC score [7]: 1
IHC score [8]: 1
IHC score [9]: 1
IHC score [10]: 1
IHC score [11]: 1
IHC score [12]: 2
IHC score [13]: 1
IHC score [14]: 1
IHC score [15]: 1
IHC score [16]: 1
IHC score [17]: 1
IHC score [18]: 1
IHC score [19]: 2
IHC score [20]: 2
IHC score [21]: 1
IHC score [22]: 2
IHC score [23]: 2
IHC score [24]: 1

LS-C100255-400 (AA 30-60) (antibody)
IHC score [4]: 1
IHC score [5]: 1
IHC score [6]: 1
IHC score [7]: 1
IHC score [8]: 1
IHC score [9]: 1
IHC score [10]: 1
IHC score [11]: 1
IHC score [12]: 2
IHC score [13]: 1
IHC score [14]: 1
IHC score [15]: 1
IHC score [16]: 1
IHC score [17]: 1
IHC score [18]: 1
IHC score [19]: 1
IHC score [20]: 1
IHC score [21]: 1
IHC score [22]: 2
IHC score [23]: 2
IHC score [24]: 1

MAB3035 (Gln25-Asn534) (antibody)
IHC score [4]: 2
IHC score [5]: 1
IHC score [6]: 2
IHC score [7]: 1
IHC score [8]: 2
IHC score [9]: 2
IHC score [10]: 1
IHC score [11]: 1
IHC score [12]: 3
IHC score [13]: 2
IHC score [14]: 1
IHC score [15]: 1
IHC score [16]: 1
IHC score [17]: 2
IHC score [18]: 1
IHC score [19]: 2
IHC score [20]: 1
IHC score [21]: 1
IHC score [22]: 2
IHC score [23]: 2
IHC score [24]: 2

LS-C36249-100 (extracellular) (antibody)
IHC score [4]: 2
IHC score [5]: 1
IHC score [6]: 2
IHC score [7]: 1
IHC score [8]: 2
IHC score [9]: 2
IHC score [10]: 2
IHC score [11]: 1
IHC score [12]: 3
IHC score [13]: 1
IHC score [14]: 1
IHC score [15]: 1
IHC score [16]: 1
IHC score [17]: 2
IHC score [18]: 2
IHC score [19]: 2
IHC score [20]: 1
IHC score [21]: 1
IHC score [22]: 3
IHC score [23]: 2
IHC score [24]: 2
